Test results: patent US20240059759A1

Columns and labels:
[1] = target: SARS-CoV-2 RBD (SinoBiological, Cat. No. 40592-V02H) (SARS-CoV-2) (UniProt P0DTC2)
[2] = target: SARS-CoV-2 RBD (SinoBiological, Cat. No. 40592-V02H) (SARS-CoV-2) (UniProt P0DTC2); test: ELISA on RBD

Substance: VHH-72 D61S
- fold enhanced binding [1]: 3 fold
- EC50 [2]: 0.17 µg/mL
